Data published in patent US20160024487.

What was measured:
[1] = molecular target: T1, Lys(Dnp)-ATNATYWPRIVGG-Lys(Abz)
T1 chain: KATNATYWPRIVGGK

[2] = molecular target: T2, Lys(Dnp)-ATNATFWPRIVGG-Lys(Abz)
T2 chain: KATNATFWPRIVGGK

[3] = molecular target: T3, Lys(Dnp)-ATNATLVPRIVGG-Lys(Abz)
T3 chain: KATNATLVPRIVGGK

[4] = molecular target: T4, Lys(Dnp)-ATNATITPRIVGG-Lys(Abz)
T4 chain: KATNATITPRIVGGK

[5] = molecular target: T5, Lys(Dnp)-ATNATVMPRIVGG-Lys(Abz)
T5 chain: KATNATVMPRIVGGK

[6] = molecular target: T6, Lys(Dnp)-ATNATMIPRIVGG-Lys(Abz)
T6 chain: KATNATMIPRIVGGK

[7] = molecular target: T7, Lys(Dnp)-ATNATPQPRIVGG-Lys(Abz)
T7 chain: KATNATPQPRIVGGK

[8] = molecular target: T8, Lys(Dnp)-ATNATAKPRIVGG-Lys(Abz)
T8 chain: KATNATAKPRIVGGK

[9] = molecular target: T9, Lys(Dnp)-ATNATLKPRIVGG-Lys(Abz)
T9 chain: KATNATLKPRIVGGK

[10] = molecular target: T10, Lys(Dnp)-ATNATFHPRIVGG-Lys(Abz)
T10 chain: KATNATFHPRIVGGK

[11] = molecular target: T11, Lys(Dnp)-ATNATYTPRIVGG-Lys(Abz)
T11 chain: KATNATYTPRIVGGK

[12] = molecular target: T12, Lys(Dnp)-ATNATMHPRIVGG-Lys(Abz)
T12 chain: KATNATMHPRIVGGK

[13] = molecular target: T13, Lys(Dnp)-ATNATMRPRIVGG-Lys(Abz)
T13 chain: KATNATMRPRIVGGK

[14] = molecular target: T14, Lys(Dnp)-ATNATAVPRIVGG-Lys(Abz)
T14 chain: KATNATAVPRIVGGK

[15] = molecular target: T15, Lys(Dnp)-ATNATYQPRIVGG-Lys(Abz)
T15 chain: KATNATYQPRIVGGK

[16] = molecular target: T16, Lys(Dnp)-ATNATIYPRIVGG-Lys(Abz)
T16 chain: KATNATIYPRIVGGK

[17] = molecular target: T17, Lys(Dnp)-ATNATPRPRIVGG-Lys(Abz)
T17 chain: KATNATPRPRIVGGK

[18] = molecular target: T18, Lys(Dnp)-ATNATINPRIVGG-Lys(Abz)
T18 chain: KATNATINPRIVGGK

[19] = molecular target: T19, Lys(Dnp)-ATNATRIPRIVGG-Lys(Abz)
T19 chain: KATNATRIPRIVGGK

[20] = molecular target: T20, Lys(Dnp)-ATNATPGPRIVGG-Lys(Abz)
T20 chain: KATNATPGPRIVGGK

[21] = molecular target: T21, Lys(Dnp)-ATNATKMPRIVGG-Lys(Abz)
T21 chain: KATNATKMPRIVGGK

[22] = molecular target: T22, Lys(Dnp)-ATNATQYPRIVGG-Lys(Abz)
T22 chain: KATNATQYPRIVGGK

[23] = molecular target: T23, Lys(Dnp)-ATNATKWPRIVGG-Lys(Abz)
T23 chain: KATNATKWPRIVGGK

[24] = molecular target: T24, Lys(Dnp)-ATNATERPRIVGG-Lys(Abz)
T24 chain: KATNATERPRIVGGK

[25] = molecular target: T25, Lys(Dnp)-ATNATGWPRIVGG-Lys(Abz)
T25 chain: KATNATGWPRIVGGK

[26] = molecular target: T26, Lys(Dnp)-ATNATILPRIVGG-Lys(Abz)
T26 chain: KATNATILPRIVGGK

[27] = molecular target: T27, Lys(Dnp)-ATNATTKPRIVGG-Lys(Abz)
T27 chain: KATNATTKPRIVGGK

[28] = molecular target: T28, Lys(Dnp)-ATNATDRPRIVGG-Lys(Abz)
T28 chain: KATNATDRPRIVGGK

[29] = molecular target: T29, Lys(Dnp)-ATNATGNPRIVGG-Lys(Abz)
T29 chain: KATNATGNPRIVGGK

[30] = molecular target: T30, Lys(Dnp)-ATNATRNPRIVGG-Lys(Abz)
T30 chain: KATNATRNPRIVGGK

[31] = molecular target: T31, Lys(Dnp)-ATNATKIPRIVGG-Lys(Abz)
T31 chain: KATNATKIPRIVGGK

[32] = molecular target: T32, Lys(Dnp)-ATNATKVPRIVGG-Lys(Abz)
T32 chain: KATNATKVPRIVGGK

[33] = molecular target: T33, Lys(Dnp)-ATNATRKPRIVGG-Lys(Abz)
T33 chain: KATNATRKPRIVGGK

[34] = molecular target: T34, Lys(Dnp)-ATNATMPPRIVGG-Lys(Abz)
T34 chain: KATNATMPPRIVGGK

[35] = molecular target: T35, Lys(Dnp)-ATNATVRPRIVGG-Lys(Abz)
T35 chain: KATNATVRPRIVGGK

[36] = molecular target: T36, Lys(Dnp)-ATNATHMPRIVGG-Lys(Abz)
T36 chain: KATNATHMPRIVGGK

[37] = molecular target: T37, Lys(Dnp)-ATNATTTPRIVGG-Lys(Abz)
T37 chain: KATNATTTPRIVGGK

[38] = molecular target: T38, Lys(Dnp)-ATNATTWPRIVGG-Lys(Abz)
T38 chain: KATNATTWPRIVGGK

[39] = molecular target: T39, Lys(Dnp)-ATNATRSPRIVGG-Lys(Abz)
T39 chain: KATNATRSPRIVGGK

[40] = molecular target: T40, Lys(Dnp)-ATNATHIPRIVGG-Lys(Abz)
T40 chain: KATNATHIPRIVGGK

[41] = molecular target: T41, Lys(Dnp)-ATNATWWPRIVGG-Lys(Abz)
T41 chain: KATNATWWPRIVGGK

B1: Human plasma purified Factor Xa (protein)
chain 1: ANSFLEEMKKGHLERECMEETCSYEEAREVFEDSDKTNEFWNKYKDGDQCETSPCQNQGKCKDGLGEYTCTCLEGFEGKNCELFTRKLCSLDNGDCDQFCHEEQNSVVCSCARGYTLADNGKACIPTGPYPCGKQTLER
chain 2: IVGGQECKDGECPWQALLINEENEGFCGGTILSEFYILTAAHCLYQAKRFKVRVGDRNTEQEEGGEAVHEVEVVIKHNRFTKETYDFDIAVLRLKTPITFRMNVAPACLPERDWAESTLMTQKTGIVSGFGRTHEKGRQSTRLKMLEVPYVDRNSCKLSSSFIITQNMFCAGYDTKQEDACQGDSGGPHVTRFKDTYFVTGIVSWGEGCARKGKYGIYTKVTAFLKWIDRSMKTRGLPKAKSHAPEVITSSPLK
FXa kcat/KM [1]: 54 M⁻¹ s⁻¹
FXa kcat/KM [2]: 370 M⁻¹ s⁻¹
FXa kcat/KM [3]: 360 M⁻¹ s⁻¹
FXa kcat/KM [4]: 840 M⁻¹ s⁻¹
FXa kcat/KM [5]: 280 M⁻¹ s⁻¹
FXa kcat/KM [6]: 220 M⁻¹ s⁻¹
FXa kcat/KM [7]: 1100 M⁻¹ s⁻¹
FXa kcat/KM [8]: 30 M⁻¹ s⁻¹
FXa kcat/KM [9]: 72 M⁻¹ s⁻¹
FXa kcat/KM [10]: 150 M⁻¹ s⁻¹
FXa kcat/KM [11]: 29 M⁻¹ s⁻¹
FXa kcat/KM [12]: 290 M⁻¹ s⁻¹
FXa kcat/KM [13]: 490 M⁻¹ s⁻¹
FXa kcat/KM [14]: 42 M⁻¹ s⁻¹
FXa kcat/KM [15]: 60 M⁻¹ s⁻¹
FXa kcat/KM [16]: 220 M⁻¹ s⁻¹

B2: Human plasma purified Factor Xa (Molecular Innovations, Inc) (protein)
chain 1: B1 chain 1
chain 2: B1 chain 2
FXa kcat/KM [17]: 500 M⁻¹ s⁻¹
FXa kcat/KM [18]: 870 M⁻¹ s⁻¹
FXa kcat/KM [19]: 700 M⁻¹ s⁻¹
FXa kcat/KM [20]: 100 M⁻¹ s⁻¹
FXa kcat/KM [21]: 140 M⁻¹ s⁻¹
FXa kcat/KM [22]: 200 M⁻¹ s⁻¹
FXa kcat/KM [23]: 130 M⁻¹ s⁻¹
FXa kcat/KM [24]: 300 M⁻¹ s⁻¹
FXa kcat/KM [25]: 82 M⁻¹ s⁻¹
FXa kcat/KM [26]: 700 M⁻¹ s⁻¹
FXa kcat/KM [27]: 14 M⁻¹ s⁻¹
FXa kcat/KM [28]: 190 M⁻¹ s⁻¹
FXa kcat/KM [29]: 52 M⁻¹ s⁻¹
FXa kcat/KM [30]: 1700 M⁻¹ s⁻¹
FXa kcat/KM [31]: 62 M⁻¹ s⁻¹
FXa kcat/KM [32]: 50 M⁻¹ s⁻¹
FXa kcat/KM [33]: 640 M⁻¹ s⁻¹
FXa kcat/KM [34]: 4.1 M⁻¹ s⁻¹
FXa kcat/KM [35]: 430 M⁻¹ s⁻¹
FXa kcat/KM [36]: 270 M⁻¹ s⁻¹
FXa kcat/KM [37]: 17 M⁻¹ s⁻¹
FXa kcat/KM [38]: 21 M⁻¹ s⁻¹
FXa kcat/KM [39]: 2700 M⁻¹ s⁻¹
FXa kcat/KM [40]: 78 M⁻¹ s⁻¹
FXa kcat/KM [41]: 70 M⁻¹ s⁻¹
